Residue numbers refer to the chain shown, from its start. In names and notes the source's numbering stands.
B1: human NUDT16 A22V (construct used for crystallography) (enzyme, UniProt Q96DE0 1-195, looked up)
chain: MAGARRLELGEALALGSGWRHVCHALLYAPDPGMLFGRIPLRYAILMQMRFDGRLGFPGGFVDTQDRSLEDGLNRELREELGEAAAAFRVERTDYRSSHVGSGPRVVAHFYAKRLTLEELLAVEAGATRAKDHGLEVLGLVRVPLYTLRDGVGGLPTFLENSFIGSAREQLLEALQDLGLLQSGSISGLKIPAHH
notes: human NUDT16, full length, from MGC cDNA BC031215, which carries a mutation that replaces Ala22 by Val; A22V was already in the purchased cDNA and was not introduced by the authors; A TEV protease site follows the His6 tag; no cleavage is described for the crystallography sample; One monomer lies in the asymmetric unit and the dimer is formed by crystallographic symmetry; also called apo-NUDT16; …
B2: human NUDT16 wild-type (sample for analytical gel filtration) (enzyme, UniProt Q96DE0 1-195, looked up)
chain: B1 chain with V22A
notes: human NUDT16 wild-type (Ala22); expression and purification for gel filtration are described only in S1 Text

Legend:
[1] = target: the molecule itself; experiment: crystal structure; apo form (1.80 Å) and IMP/Mg2+-bound form (1.72 Å), space group F23; one monomer in the asymmetric unit, dimer with a symmetry-related molecule
[2] = target: the molecule itself; experiment: SEC; analytical gel filtration of NUDT16 wild-type against standard proteins; protocol in S1 Text

Row | Protein | binding result [1] | stoichiometry N [2]
1 | B1 | binds | –
2 | B2 | – | 2
